Results on one protein are retold here after article PMC3927786 (Chemistry & biology, 2013).

This data set deals with the molecule itself. The data set is described as follows: SEC.

B1: pimeloyl-CoA ligase (BioW) (enzyme, UniProt P53559 1-259, looked up)
chain: MMQEETFYSVRMRASMNGSHEDGGKHISGGERLIPFHEMKHTVNALLEKGLSHSRGKPDFMQIQFEEVHESIKTIQPLPVHTNEVSCPEEGQKLARLLLEKEGVSRDVIEKAYEQIPEWSDVRGAVLFDIHTGKRMDQTKEKGVRVSRMDWPDANFEKWALHSHVPAHSRIKEALALASKVSRHPAVVAELCWSDDPDYITGYVAGKKMGYQRITAMKEYGTEEGCRVFFIDGSNDVNTYIHDLEKQPILIEWEEDHDS
For orientation: stoichiometry N means a count of units in the complex or per binding partner. Consider B1, for which the “stoichiometry N” value came out at 2.
